Laboratory results: the Human Domainome abundance scans (Beltran et al. 2025)
± gives the uncertainty stated by the source.

B1: Protein C-ets-1, residues 55 to 135; numbered along this chain, P14921 (parent)
chain: GFTKEQQRLGIPKDPRQWTETHVRDWVMWAVNEFSLKGVDFQKFCMNGAALCALGKDCFLELAPDFVGDILWEHLEILQKE

Variants of: B1
Experiment: abundance fitness (aPCA) (normalised: wild type 0, dead -1); higher = more abundant; growth selection in yeast, the domain comes from the species named
Details: Homo sapiens

Going from K4E to K4V, the abundance fitness falls from 0.008 ± 0.059 to -0.098 ± 0.036.

K4M and K4C are within error of each other in abundance fitness: -0.043 ± 0.053 for the first, -0.108 ± 0.065 for the second.

K4N and K4I are within error of each other in abundance fitness: 0.024 ± 0.11 for the first, 0.037 ± 0.11 for the second.

K4S and K4L are within error of each other in abundance fitness: -0.055 ± 0.043 for the first, -0.085 ± 0.042 for the second.

Going from K4G to K4W, the abundance fitness falls from -0.054 ± 0.038 to -0.207 ± 0.062.

E20C and E20D are within error of each other in abundance fitness: -0.105 ± 0.042 for the first, -0.107 ± 0.032 for the second.

E20N and E20K are within error of each other in abundance fitness: -0.114 ± 0.072 for the first, -0.036 ± 0.063 for the second.

Going from E20Y to E20Q, the abundance fitness rises from -0.224 ± 0.05 to -0.021 ± 0.055.

Going from E20M to H22P, the abundance fitness falls from -0.078 ± 0.037 to -0.85 ± 0.11.

First: H22T
Second: H22V
The abundance fitness of the first is higher: -0.528 ± 0.049 for the first, -0.673 ± 0.054 for the second.

Going from H22Q to L54Q, the abundance fitness falls from -0.063 ± 0.049 to -0.299 ± 0.056.

Compared with L54W, L54T is higher in abundance fitness: -0.582 ± 0.051 for the first, -0.33 ± 0.042 for the second.

L54I and R16D are within error of each other in abundance fitness: -0.078 ± 0.064 for the first, -0.147 ± 0.052 for the second.

Going from R16G to G38V, the abundance fitness falls from -0.108 ± 0.034 to -0.476 ± 0.034.

Going from G38F to G38T, the abundance fitness rises from -0.43 ± 0.055 to -0.201 ± 0.047.

E5I and E5F are within error of each other in abundance fitness: -0.105 ± 0.098 for the first, -0.088 ± 0.07 for the second.

First: N47M
Second: N47C
The abundance fitness of the first is lower: -0.881 ± 0.1 for the first, -0.223 ± 0.062 for the second.

First: N47V
Second: Q17T
The abundance fitness of the first is lower: -0.903 ± 0.081 for the first, 0.033 ± 0.053 for the second.

Q17F and Q17V are within error of each other in abundance fitness: -0.1 ± 0.076 for the first, 0.002 ± 0.036 for the second.

Q17Y and Q17D are within error of each other in abundance fitness: -0.154 ± 0.14 for the first, 0.016 ± 0.07 for the second.

Going from Q6D to Q6F, the abundance fitness rises from -0.277 ± 0.063 to -0.075 ± 0.088.

Compared with Q6P, Q6E is higher in abundance fitness: -0.389 ± 0.062 for the first, -0.164 ± 0.047 for the second.

Compared with Q6G, K56R is higher in abundance fitness: -0.101 ± 0.028 for the first, -0.004 ± 0.034 for the second.

First: K56T
Second: K56A
The abundance fitness of the first is lower: -0.878 ± 0.098 for the first, -0.482 ± 0.04 for the second.

First: K56S
Second: H74R
The abundance fitness of the first is lower: -0.7 ± 0.055 for the first, -0.222 ± 0.026 for the second.

Going from H74E to H74V, the abundance fitness falls from -0.027 ± 0.064 to -0.419 ± 0.039.

First: H74F
Second: E73I
The abundance fitness of the first is higher: -0.4 ± 0.093 for the first, -0.651 ± 0.15 for the second.

E73A and E73W are within error of each other in abundance fitness: -0.079 ± 0.054 for the first, -0.142 ± 0.052 for the second.

E73F and E73C are within error of each other in abundance fitness: -0.251 ± 0.059 for the first, -0.252 ± 0.074 for the second.

Compared with E73P, E73G is higher in abundance fitness: -0.898 ± 0.11 for the first, -0.08 ± 0.036 for the second.

R8S and R8M are within error of each other in abundance fitness: -0.136 ± 0.05 for the first, -0.138 ± 0.059 for the second.

R8T and R8E are within error of each other in abundance fitness: -0.111 ± 0.071 for the first, -0.074 ± 0.048 for the second.

R8N and R8Q are within error of each other in abundance fitness: -0.16 ± 0.078 for the first, -0.083 ± 0.06 for the second.

Compared with R8G, F59M is lower in abundance fitness: -0.112 ± 0.03 for the first, -0.239 ± 0.048 for the second.

Compared with F59Q, F59C is higher in abundance fitness: -0.836 ± 0.08 for the first, -0.65 ± 0.083 for the second.

F59K and F59D are within error of each other in abundance fitness: -0.882 ± 0.097 for the first, -0.782 ± 0.078 for the second.

Going from F59A to F59V, the abundance fitness rises from -0.928 ± 0.054 to -0.467 ± 0.031.

First: W29R
Second: W29K
The abundance fitness of the first is higher: -0.489 ± 0.031 for the first, -0.659 ± 0.064 for the second.

W29N and W29G are within error of each other in abundance fitness: -0.586 ± 0.11 for the first, -0.492 ± 0.038 for the second.

Going from W29T to D25E, the abundance fitness rises from -0.515 ± 0.047 to 0.06 ± 0.039.

D25H and T21V are within error of each other in abundance fitness: 0.041 ± 0.052 for the first, -0.041 ± 0.041 for the second.

T21H and T21K are within error of each other in abundance fitness: -0.067 ± 0.074 for the first, -0.022 ± 0.073 for the second.

Going from W18G to W18R, the abundance fitness rises from -0.992 ± 0.074 to -0.733 ± 0.061.

W18N and L36D are within error of each other in abundance fitness: -0.965 ± 0.21 for the first, -0.763 ± 0.11 for the second.

L36W and L36V are within error of each other in abundance fitness: -0.29 ± 0.049 for the first, -0.276 ± 0.037 for the second.

Going from L36Q to L36C, the abundance fitness rises from -0.624 ± 0.12 to -0.332 ± 0.063.

L36P and V23N are within error of each other in abundance fitness: -0.725 ± 0.084 for the first, -0.858 ± 0.24 for the second.

V23R and V23W are within error of each other in abundance fitness: -0.686 ± 0.059 for the first, -0.822 ± 0.1 for the second.

Compared with V23L, G10Q is higher in abundance fitness: -0.728 ± 0.06 for the first, 0.008 ± 0.051 for the second.

G10I and G10K are within error of each other in abundance fitness: -0.187 ± 0.096 for the first, -0.028 ± 0.075 for the second.

First: G10R
Second: G10Y
The abundance fitness of the first is higher: -0.056 ± 0.033 for the first, -0.33 ± 0.07 for the second.

Going from G10P to F41L, the abundance fitness rises from -0.263 ± 0.035 to 0.051 ± 0.028.

Going from F41S to F41P, the abundance fitness rises from -0.042 ± 0.036 to 0.059 ± 0.045.

First: V31S
Second: V31A
The abundance fitness of the first is lower: -0.076 ± 0.03 for the first, 0.018 ± 0.037 for the second.

Compared with V31D, V31Q is higher in abundance fitness: -0.491 ± 0.055 for the first, -0.126 ± 0.04 for the second.

First: V31N
Second: V31E
The abundance fitness of the first is lower: -0.401 ± 0.067 for the first, -0.19 ± 0.053 for the second.

First: V31Y
Second: C52R
The abundance fitness of the first is higher: -0.44 ± 0.066 for the first, -0.564 ± 0.034 for the second.

First: C52F
Second: C52P
The abundance fitness of the first is higher: -0.325 ± 0.056 for the first, -0.896 ± 0.073 for the second.

First: C52S
Second: C52E
The abundance fitness of the first is higher: -0.185 ± 0.033 for the first, -0.542 ± 0.038 for the second.

First: C52I
Second: P12L
The abundance fitness of the first is higher: -0.029 ± 0.052 for the first, -0.567 ± 0.064 for the second.

Compared with P12R, P12S is higher in abundance fitness: -0.709 ± 0.058 for the first, -0.28 ± 0.047 for the second.

P12A and P12N are within error of each other in abundance fitness: -0.46 ± 0.05 for the first, -0.47 ± 0.15 for the second.

P12H and P64H are within error of each other in abundance fitness: -0.379 ± 0.12 for the first, -0.34 ± 0.091 for the second.

Compared with P64K, S35R is higher in abundance fitness: -0.6 ± 0.074 for the first, -0.029 ± 0.029 for the second.

Going from S35M to S35K, the abundance fitness rises from -0.142 ± 0.048 to -0.012 ± 0.049.

Going from S35A to G48P, the abundance fitness falls from -0.069 ± 0.03 to -1.02 ± 0.11.

Compared with G48I, K13Q is higher in abundance fitness: -1.03 ± 0.29 for the first, -0.059 ± 0.067 for the second.

K13G and K13L are within error of each other in abundance fitness: -0.088 ± 0.034 for the first, -0.065 ± 0.043 for the second.

K13C and D14C are within error of each other in abundance fitness: -0.04 ± 0.052 for the first, -0.152 ± 0.061 for the second.

Compared with D14S, D14P is lower in abundance fitness: -0.339 ± 0.038 for the first, -0.813 ± 0.068 for the second.

D14A and D14M are within error of each other in abundance fitness: -0.533 ± 0.034 for the first, -0.52 ± 0.055 for the second.

Compared with D14W, W72M is higher in abundance fitness: -0.661 ± 0.047 for the first, -0.389 ± 0.078 for the second.

First: W72N
Second: D57W
The abundance fitness of the first is lower: -0.746 ± 0.2 for the first, -0.464 ± 0.06 for the second.

D57K and D57N are within error of each other in abundance fitness: 0.017 ± 0.066 for the first, -0.02 ± 0.063 for the second.

E76S and E76H are within error of each other in abundance fitness: -0.021 ± 0.037 for the first, -0.085 ± 0.091 for the second.

E76I and E76P are within error of each other in abundance fitness: -0.267 ± 0.13 for the first, -0.205 ± 0.058 for the second.

E76Q and A49N are within error of each other in abundance fitness: -0.043 ± 0.062 for the first, -0.139 ± 0.053 for the second.

A49R and A49D are within error of each other in abundance fitness: -0.013 ± 0.02 for the first, -0.04 ± 0.032 for the second.

First: A49F
Second: L51P
The abundance fitness of the first is higher: -0.339 ± 0.039 for the first, -0.794 ± 0.059 for the second.

First: L51T
Second: L51I
The abundance fitness of the first is lower: -0.961 ± 0.11 for the first, -0.15 ± 0.057 for the second.

R24T and R24A are the same in abundance fitness: -0.087 ± 0.052 for the first, -0.087 ± 0.046 for the second.

R24Y and R24Q are within error of each other in abundance fitness: -0.152 ± 0.088 for the first, -0.039 ± 0.038 for the second.

Going from R24D to R24N, the abundance fitness rises from -0.827 ± 0.13 to -0.062 ± 0.11.

Variant R24V has an abundance fitness of -0.059 ± 0.043.
